Reference: paper doi:10.1101/2024.12.20.629683 (bioRxiv, 2024)

Molecular target: Ryanodine receptor 1 (RyR1) (rabbit (endogenous in skeletal muscle), UniProt P11716)
Experiment: cryo-EM structure

Chain of Ryanodine receptor 1 (RyR1) (P11716 whole entry): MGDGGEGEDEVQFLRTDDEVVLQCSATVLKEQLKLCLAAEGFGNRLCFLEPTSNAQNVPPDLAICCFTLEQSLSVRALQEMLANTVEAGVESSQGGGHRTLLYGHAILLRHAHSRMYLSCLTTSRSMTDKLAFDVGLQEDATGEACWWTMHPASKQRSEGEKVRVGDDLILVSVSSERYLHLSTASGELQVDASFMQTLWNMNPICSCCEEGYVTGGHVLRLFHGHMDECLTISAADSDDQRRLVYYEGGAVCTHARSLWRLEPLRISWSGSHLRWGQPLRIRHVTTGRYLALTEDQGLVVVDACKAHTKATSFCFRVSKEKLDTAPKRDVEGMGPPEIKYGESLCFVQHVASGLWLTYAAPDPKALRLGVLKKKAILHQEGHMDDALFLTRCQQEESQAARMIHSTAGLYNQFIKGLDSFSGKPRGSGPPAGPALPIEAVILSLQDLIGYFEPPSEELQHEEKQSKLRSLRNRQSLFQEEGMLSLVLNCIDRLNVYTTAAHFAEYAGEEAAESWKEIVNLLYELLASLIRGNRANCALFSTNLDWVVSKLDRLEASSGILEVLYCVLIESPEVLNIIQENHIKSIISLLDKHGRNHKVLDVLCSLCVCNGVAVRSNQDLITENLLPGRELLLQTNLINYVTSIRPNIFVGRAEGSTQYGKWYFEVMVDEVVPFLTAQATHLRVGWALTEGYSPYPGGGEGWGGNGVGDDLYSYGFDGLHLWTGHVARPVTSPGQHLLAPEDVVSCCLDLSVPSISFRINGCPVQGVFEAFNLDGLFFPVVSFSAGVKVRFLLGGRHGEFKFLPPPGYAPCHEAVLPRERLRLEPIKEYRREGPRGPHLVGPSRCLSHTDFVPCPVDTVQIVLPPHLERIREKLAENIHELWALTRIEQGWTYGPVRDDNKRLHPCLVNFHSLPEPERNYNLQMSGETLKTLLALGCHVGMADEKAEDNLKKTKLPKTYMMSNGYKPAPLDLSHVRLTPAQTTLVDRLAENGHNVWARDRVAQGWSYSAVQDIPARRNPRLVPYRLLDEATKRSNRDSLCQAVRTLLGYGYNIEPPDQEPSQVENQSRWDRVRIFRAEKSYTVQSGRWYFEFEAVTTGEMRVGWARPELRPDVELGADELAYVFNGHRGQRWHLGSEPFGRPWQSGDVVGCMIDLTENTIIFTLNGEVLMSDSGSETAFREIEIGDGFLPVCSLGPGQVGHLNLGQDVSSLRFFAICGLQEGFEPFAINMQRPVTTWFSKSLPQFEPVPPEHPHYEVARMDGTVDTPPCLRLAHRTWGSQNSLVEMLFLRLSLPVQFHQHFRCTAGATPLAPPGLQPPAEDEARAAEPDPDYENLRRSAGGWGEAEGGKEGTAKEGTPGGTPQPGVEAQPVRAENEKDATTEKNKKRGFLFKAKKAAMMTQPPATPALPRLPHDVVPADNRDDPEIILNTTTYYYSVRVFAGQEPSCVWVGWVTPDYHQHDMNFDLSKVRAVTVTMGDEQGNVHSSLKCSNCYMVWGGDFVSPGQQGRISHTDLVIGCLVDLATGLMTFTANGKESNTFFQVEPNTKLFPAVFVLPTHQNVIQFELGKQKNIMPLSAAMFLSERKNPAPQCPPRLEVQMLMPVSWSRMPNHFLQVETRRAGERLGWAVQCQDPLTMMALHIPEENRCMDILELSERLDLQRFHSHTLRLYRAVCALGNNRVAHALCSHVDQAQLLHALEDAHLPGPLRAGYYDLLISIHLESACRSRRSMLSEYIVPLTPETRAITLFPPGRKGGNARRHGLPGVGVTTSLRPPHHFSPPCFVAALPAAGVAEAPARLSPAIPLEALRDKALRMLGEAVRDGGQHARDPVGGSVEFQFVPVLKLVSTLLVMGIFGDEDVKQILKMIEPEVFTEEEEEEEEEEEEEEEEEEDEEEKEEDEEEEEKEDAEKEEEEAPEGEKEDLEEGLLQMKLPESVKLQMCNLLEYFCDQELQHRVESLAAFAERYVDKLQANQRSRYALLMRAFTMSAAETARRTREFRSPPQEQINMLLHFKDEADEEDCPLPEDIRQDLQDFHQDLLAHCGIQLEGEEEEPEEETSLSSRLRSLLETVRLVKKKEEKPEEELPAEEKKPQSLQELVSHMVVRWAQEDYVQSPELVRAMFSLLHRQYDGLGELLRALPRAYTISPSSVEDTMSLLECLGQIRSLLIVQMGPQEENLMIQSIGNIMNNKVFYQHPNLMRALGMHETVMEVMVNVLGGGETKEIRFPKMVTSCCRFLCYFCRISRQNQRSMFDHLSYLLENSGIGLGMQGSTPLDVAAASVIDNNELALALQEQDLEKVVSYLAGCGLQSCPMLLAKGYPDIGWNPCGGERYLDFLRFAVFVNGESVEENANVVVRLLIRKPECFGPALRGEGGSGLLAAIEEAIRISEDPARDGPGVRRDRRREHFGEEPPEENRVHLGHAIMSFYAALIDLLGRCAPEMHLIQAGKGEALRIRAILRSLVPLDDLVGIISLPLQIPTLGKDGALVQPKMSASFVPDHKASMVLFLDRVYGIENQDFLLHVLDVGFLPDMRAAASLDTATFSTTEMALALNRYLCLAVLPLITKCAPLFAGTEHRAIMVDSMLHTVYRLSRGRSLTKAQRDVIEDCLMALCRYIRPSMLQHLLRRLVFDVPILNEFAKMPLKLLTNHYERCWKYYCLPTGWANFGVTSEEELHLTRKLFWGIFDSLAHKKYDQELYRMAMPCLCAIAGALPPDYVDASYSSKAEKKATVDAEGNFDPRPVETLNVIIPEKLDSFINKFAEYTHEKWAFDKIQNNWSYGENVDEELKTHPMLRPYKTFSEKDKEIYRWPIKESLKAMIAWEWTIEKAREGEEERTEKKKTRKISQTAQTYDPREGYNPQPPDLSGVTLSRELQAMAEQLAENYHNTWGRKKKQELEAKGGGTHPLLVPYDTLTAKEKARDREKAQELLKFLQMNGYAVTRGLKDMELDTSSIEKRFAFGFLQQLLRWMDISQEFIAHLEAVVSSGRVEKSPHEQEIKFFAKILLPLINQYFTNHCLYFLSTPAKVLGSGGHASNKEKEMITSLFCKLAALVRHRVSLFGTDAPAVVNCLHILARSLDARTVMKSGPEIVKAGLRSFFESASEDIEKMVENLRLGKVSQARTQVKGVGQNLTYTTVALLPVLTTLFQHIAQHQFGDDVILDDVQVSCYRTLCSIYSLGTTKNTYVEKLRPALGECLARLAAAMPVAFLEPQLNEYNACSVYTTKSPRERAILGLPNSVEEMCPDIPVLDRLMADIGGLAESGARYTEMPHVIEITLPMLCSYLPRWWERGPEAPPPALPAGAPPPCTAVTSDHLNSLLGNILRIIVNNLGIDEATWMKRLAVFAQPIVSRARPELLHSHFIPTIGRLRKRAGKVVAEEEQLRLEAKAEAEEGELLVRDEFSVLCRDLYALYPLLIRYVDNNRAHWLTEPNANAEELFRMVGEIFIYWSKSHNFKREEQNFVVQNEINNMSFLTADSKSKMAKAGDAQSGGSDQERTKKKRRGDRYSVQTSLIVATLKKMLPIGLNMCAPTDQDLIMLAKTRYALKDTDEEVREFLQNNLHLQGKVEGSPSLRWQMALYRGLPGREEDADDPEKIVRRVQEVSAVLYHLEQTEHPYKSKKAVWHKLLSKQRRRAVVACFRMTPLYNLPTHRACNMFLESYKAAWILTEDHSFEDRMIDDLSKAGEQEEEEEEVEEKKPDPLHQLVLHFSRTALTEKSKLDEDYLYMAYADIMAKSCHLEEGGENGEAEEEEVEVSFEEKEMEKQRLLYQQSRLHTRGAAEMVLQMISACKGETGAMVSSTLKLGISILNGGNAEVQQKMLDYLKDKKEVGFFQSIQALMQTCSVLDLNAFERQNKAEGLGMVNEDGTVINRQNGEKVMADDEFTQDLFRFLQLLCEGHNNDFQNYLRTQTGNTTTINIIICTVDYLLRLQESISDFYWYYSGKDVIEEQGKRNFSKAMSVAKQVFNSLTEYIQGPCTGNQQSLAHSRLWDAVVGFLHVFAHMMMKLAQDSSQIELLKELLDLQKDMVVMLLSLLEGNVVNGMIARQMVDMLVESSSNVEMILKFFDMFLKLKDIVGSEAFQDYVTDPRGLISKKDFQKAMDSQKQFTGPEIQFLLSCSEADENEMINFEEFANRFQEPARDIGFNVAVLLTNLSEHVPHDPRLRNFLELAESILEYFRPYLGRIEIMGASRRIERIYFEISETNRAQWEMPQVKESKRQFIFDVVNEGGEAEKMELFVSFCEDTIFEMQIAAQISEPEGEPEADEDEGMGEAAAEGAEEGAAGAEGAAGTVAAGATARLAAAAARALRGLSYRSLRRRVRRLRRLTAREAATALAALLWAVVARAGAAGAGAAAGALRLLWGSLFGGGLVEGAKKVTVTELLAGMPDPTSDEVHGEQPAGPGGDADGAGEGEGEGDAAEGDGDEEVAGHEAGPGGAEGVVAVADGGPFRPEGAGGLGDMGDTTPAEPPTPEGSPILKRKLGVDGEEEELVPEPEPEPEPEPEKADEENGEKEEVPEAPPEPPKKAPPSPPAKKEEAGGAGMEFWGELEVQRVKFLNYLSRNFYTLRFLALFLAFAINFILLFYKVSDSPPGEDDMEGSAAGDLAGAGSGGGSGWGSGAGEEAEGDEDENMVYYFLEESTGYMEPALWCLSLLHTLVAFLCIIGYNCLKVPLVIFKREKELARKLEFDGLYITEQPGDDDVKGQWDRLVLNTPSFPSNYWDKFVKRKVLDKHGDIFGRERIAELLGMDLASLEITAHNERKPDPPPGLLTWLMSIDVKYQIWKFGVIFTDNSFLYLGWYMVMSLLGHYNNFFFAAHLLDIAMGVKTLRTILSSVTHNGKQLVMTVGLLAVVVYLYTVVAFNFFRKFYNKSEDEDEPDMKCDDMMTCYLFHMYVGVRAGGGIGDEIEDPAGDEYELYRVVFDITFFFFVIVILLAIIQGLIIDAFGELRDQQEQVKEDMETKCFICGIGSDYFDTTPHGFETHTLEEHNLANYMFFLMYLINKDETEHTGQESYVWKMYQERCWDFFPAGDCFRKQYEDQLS

binding result: binds
B1: RyR-specific nanobody Nb9657 (VHH)
VHH: QVQLQESGGGLMQAGGSLRLSCTASGSIFSINSMGWYRQAPGKQRELVATITSGNSINYADSVKGRFTISRDNAKNTVYLQMNSLKPEDTAVYYCNADRVPNGYNPWGTPNDEYDYWGQGTQVTVSS
